Experimental data as given in paper doi:10.1101/2024.07.25.605195 (bioRxiv, 2024).
Several values for one entry are separate records, joined by “and”; a condition that tells them apart may be missing. Identical values can stand only once.

Target: the molecule itself
Experiment: cryo-EM structure

B1: mouse seipin, recombinant, purified from Expi293 cells co-expressing Adig (natural protein, UniProt Q9Z2E9 1-383, looked up)
chain: MVNDPPVPALLWAQEVGHVLAGRARRLMLQFGVLFCTILLLLWVSVFLYGSFYYSYMPTVSHLSPVHFHYRTDCDSSTASLCSFPVANVSLAKSGRDRVLMYGQPYRVTLELELPESPVNQDLGMFLVTVSCYTRGGRIISTSSRSVMLHYRSQLLQVLDTLLFSSLLLFGFAEQKQLLEVELYSDYRENSYVPTTGAIIEIHSKRIQMYGAYLRIHAHFTGLRYLLYNFPMTCAFVGVASNFTFLSVIVLFSYMQWVWGAVWPRHRFSLQVNIRQRDNSHHGAPRRISRHQPGQESTQQSDVTEDGESPEDPSGTEGQLSEEEKPEKRPLNGEEEQEPEASDGSWEDAALLTEANPPTSASASALAPETLGSLRQRPTCSSS
  stoichiometry N: 11 and 12
